Laboratory results reported in patent US20250381223A1 (UTC THERAPEUTICS SHANGHAI, published 2025).

B1: huVH5huVL3 (antibody, human IgG1, kappa, V domains shown)
VH: QVQLQESGPGLVKPSETLSLTCTVSGFSISDYGVHWIRQPPGKGLEWIGVIWAGGGTNYNPSLKSRVTISVDTSKNQVSLKLSSVTAADTAVYYCARDKGYSYYYSMDYWGQGTTVTVSS
VL: DIQLTQSPSSLSASVGDRVTITCRASESVEYYVTSLMQWYQQKPGKAPKLLIFAASNVESGVPSRFSGSGSGTDFTLTISSLQPEDFATYYCQQSRKVPYTFGGGTKLEIKR
B2: anti-CD123 scFv-C1 (scFv)
scFv: QSALTQPASVSGSPGQSITISCTGTSSDIGAYNYVSWYQQHPGKAPKLIIYDVSHRPSGVSNRFSGSKSGNTASLTISGLQSEDEADYYCSSDTNNNTLVFGVGTKLTVLGGGGSGGGGSGGGGSEVHLVESGGGVVQPGRSLRLSCAASGFTFSSYGMHWVRQAPGKGLEWVAVIWYDGSNKYYADSVKGRFTISRDNSKNTLYLQMNSLRAEDTAVYYCARDRDGFFLPMYYFDYWGQGTLVTVSS
notes: On mRNA-electroporated T cells as CAR (hinge to CD3-zeta)
B3: anti-CD123 scFv-C2 (scFv)
scFv: QSVVTQPPSVSAAPGQKVTISCSGSSSNIGNNYVSWYQQFPGTAPKLLIYDNNKRPSGIPDRFSGSKSGTSGTLGITGLQTGDEADYYCVTWDTSLSAGVFGGGTKLTVLGGGGSGGGGSGGGGSQITLKESGGGLVKPGGSLRLSCAASGFTFSNAWMSWVRQAPGKGLEWVGRIKSKTDGGTTDYAAPVKGRFTISRDDSKNTLYLQMNSLKTEDTAVYYCTTDPHGYYYGMDVWGQGTTVTVSS
notes: On mRNA-electroporated T cells as CAR
B4: anti-CD123 scFv-C3 (scFv)
scFv: AIQMTQSPSSLSASVGDRVTITCRASQGIGTYLAWFQQKPGKAPKSLIYAASNLQSGVPSKFSGSGSGTDFTLTISNLQPEDFATYYCQQYKGYPLTFGGGTKLEIKGGGGSGGGGSGGGGSQVQLVQSGAEVKKPGSSVKVSCKASGGTFSSYAISWVRQAPGQGLEWMGGIIPIFGTANYAQKFQGRVTITADESTSTAYMELSSLRSEDTAVYYCARDSGWFGPRYYFDYWGQGTLVTVSS
notes: as for B3
B5: anti-CD123 scFv-C4 (scFv)
scFv: QSALTQPPSASGTPGQRVTISCSGSSSNIGSNYVNWYQQLPGTAPKLLIYRNNQRPSGVPDRFSGSKSGTSASLAISGLRSEDEADYYCAAWDDSLSGHGVFGTGTELTVLGGGGSGGGGSGGGGSQVQLVQSGPEVKKPGASVKVSCKASGYDFIRYYMNWVRQAPGQGPEWMGAIDPSDGDTTYGQKFQGRVTLTRDTFTSTVYMELSSLRSEDTAVYYCARDWELTNSYGLDVWGQGTTVTVSS
notes: as for B3
B6: anti-CD123 scFv-C5 (scFv)
scFv: NFMLTQPHSVSESPGKTVTLSCTRSSGSIAGSYVQWYQQRPGSSPTTVIFQDNQRPSGVPDRFSGSIDKSSNSASLTISGLKTEDEADYYCQSYDSNNQVFGGGTKLTVLGGGGSGGGGSGGGGSEVHLVESGGGVVRPGGSLRLSCAASGFTFGDYGMSWVRQAPGKGLEWVSGINWNGGRTGYADSVKGRFTISRDNAKNSLYLQMNSLRAEDTALYYCARARGSGSYFGYMDVWGKGTTVTVSS
notes: On mRNA-electroporated T cells as CAR; also called anti-CD123-C5
B7: anti-CD123 scFv-C6 (scFv)
scFv: SYELTQPPSVSVSPGQTARIPCSGADLGDQYVSWYQHQPGQSPLLVIYEDDKRPSGIPERFSGSNSGNTATLTISGTQAMDEADYYCQAWDGNAAIFGGGTKLTVLGGGGSGGGGSGGGGSQVQLVQSGGGSVQPGGSLRLSCAASGFTFTRYSMNWVRQAPGKGLEWVSYISSSSSTIYYADSVKGRFTISRDNAKNSLYLQMNSLRDEDTAVYYCARDGYGGNSDYYGMDVWGQGTTVTVSS
notes: as for B3
B8: anti-CD123 scFv-C9 (scFv)
scFv: QSVLTQPPSASGTPGQRVTISCSGSNSNIENNYVYWYQHLPGTAPKRLIYQNNQRPSGVPDRFSGSKSGTSASLAISGLRSEDEADYYCSAWDDSLSAWVFGGGTELTVLGGGGSGGGGSGGGGSEVHLVESGGGLVQPGRSLRLSCTASGFTFGDYAMNWVRQAPGKGLEWVGFIRSKASGGTTDYAASVKGRFTISRDDSKSIAYLQMNSLKTEDTAVYYCTRALRGYSYGLFDYWGQGTLVTVSS
notes: as for B3
B9: anti-CD123 scFv-C10 (scFv)
scFv: SYELTQPPSVSVAPGKTARITCGGNNIGSKSVHWYQQKPGQAPVLVVYDDSDRPSGIPERFSGSNSGNTATLTISRVEAGDEADYYCQVWDSSSDHWVFGGGTKLTVLGGGGSGGGGSGGGGSQVQLVQSGAEVKKPGSSVKVSCKASGGTFSSYAISWVRQAPGQGLEWMGGIIPIFGTANYAQKFQGRVTITADESTSTAYMELSSLRSEDTAVYYCAREKWGYYGDYYYGMDVWGQGTTVTVSS
notes: as for B3
B10: anti-CD123 scFv-C11 (scFv)
scFv: QSVVTQPPSASGTPGQRVTISCSGSSSNIGSNYVYWYQQLPGTAPKLLIYRNNQRPSGVPDRFSGSKSGTSASLAISGLRSEDEADYYCAAWDDSLSGYVFGTGTKLTVLGGGGSGGGGSGGGGSEVQLVESGGGLVQPGRSLRLSCTASGFTFGDYAMSWVRQAPGKGLEWVGFIRSKAYGGTTEYAASVKGRFTISRDDSKSIAYLQMNSLKTEDTAVYYCTRDIGYYGSGSYSPFDYWGQGTLVTVSS
notes: On mRNA-electroporated T cells as CAR; also called anti-CD123-C11
B11: anti-CD123 scFv-C13 (scFv)
scFv: DVVMTQTPLSLPVTLGQPASISCRSSQGLVFSDGVTYLNWFQQRPGQSPRRLIYKVSNRDSGVPDRFSGSGSGTDFTLKISRVEAEDVGIYYCMQGTHWPHTFGQGTKLEIKGGGGSGGGGSGGGGSEVQLVESGGGLVKPGGSLRLSCAASGFTFSSYSMNWVRQAPGKGLEWVAFISHDASKKFYADSVKGRFTLSRDNSKNTLYLEMNSLGAEDTALYYCGRDRNWGFSDFWGQGTLVTVSS
notes: as for B3
B12: anti-CD123 scFv-C14 (scFv)
scFv: DIRMTQSPSSLSASVGDRVTITCQASQDITNYLNWYHQKPGKAPKLLIYDASNLETGVPSRFSGGGSGTDFTFTISSLQSEDIGTYYCQQYDDLPLTFGGGTKVEIKGGGGSGGGGSGGGGSQVQLQESGPGLVKPSETLSLTCTVSGGSISSSSHYWGWIRQPPGKGLEWIGSIYYSGSTYYNPSLKSRVTISVDTSKNQFSLKLSSVTAADTAVYYCARRVWVWPTYGMDVWGQGTTVTVSS
notes: as for B3
B13: anti-CD123 scFv-C15 (scFv)
scFv: DIQLTQSPSTLSASVGDRVTISCRASQSISSWLAWYQHKPGKAPKLLIYKTSALEDGVPSRFSGSGSGTEFTLTISSLQPDDFATYFCLHYGSYTFGQGTKVDIKGGGGSGGGGSGGGGSEVQLVESGGGLVNPGGSLRLSCEASGFTFSDYYISWIRQAPGKGLEWISYISGSSTYTDFADSVKGRFTISRDNAKNTVFLQMNSLRAEDTAVYYCARDRRGRFDPWGQGTLVTVSS
notes: as for B3
B14: anti-CD123 scFv-C16 (scFv)
scFv: QSVVTQPPSASGTPGQRVTISCSGSSSNIEGNTVSWYQQFPGAAPKLLIYSNSYRASGVPDRFSGSKSGTSASLAISELQSEDEADYYCSAWDDSLNGPVFGGGTELTVLGGGGSGGGGSGGGGSQVQLQESGGGLVQPGGSLRLSCAASGFTFSSYSMNWVRQAPGKGLEWVSYISSSSSTIYYADSVKGRFTISRDNAKNSLYLQMNSLRAEDTAVYYCARDIYGDWDYYYYGMDVWGQGTTVTVSS
notes: as for B3
B15: anti-CD123 scFv-C17 (scFv)
scFv: QSALTQPASVSGSLGQSITISCTGTSSDVGTYDYVSWYQQHPGKAPKLMIYDVTYRPSGVSHRFSGSKSGNTASLTISGLQADDEADYYCQQYNNWPPRYTFGQGTKVEIKGGGGSGGGGSGGGGSQVQLVQSGAEVEKPGASVKLSCTASGYNFNSYYMHWVRLTPGQGLEWMGLINPTNGRTTYAQKFQGRVTMTGDTSTRTVYLALSSLRSEDSALYYCARGSPPHIFDPDFDYWGQGTLVTVSS
notes: as for B3
B16: anti-CD123 scFv-C18 (scFv)
scFv: QSALTQPASVSGSPGQSITISCTGTSSDVGGYNYVSWYQQHPGKAPKLMIYDVSNRPSGVSNRFSGSKSGNTASLTISGLQAEDEADYYCSSYTSSSTLFVFGTGTELTVLGGGGSGGGGSGGGGSQVQLQESGPGLVKPSQTLSLTCTVSGGSISSGDYYWSWIRQSPGKGLEWIGYIHSTGTTYYNPSLKSRLTISLDTSKNQFSLKLNSVTAADTAVYYCARGGVGTIFNYWGQGTLVTVSS
notes: as for B3

Each binder was assayed against T1, CD28 (detection antigen of the BLI assay) (human, UniProt P10747 19-152, limits assumed) (assay: BLI (GATOR); antibody loaded at 30 nM, antigen 300-37.5 nM).
T1 construct: also called the antigen
From the text: The affinity kinetics of the humanized antibodies were detected using biolayer interferometry (BLI). The experimental procedures were as follows: [0533] 1. GATOR instrument was run, and the Kinetics experimental mode was selected. [0534] 2. The analysis program was run according to Table 5

B1 was tested, and the Kd was 11.5 nM.

B1 showed a koff of 0.00101 s⁻¹.

For B1, the kon was 87800 M⁻¹ s⁻¹.

These binders were tested against T2, CD123-Fc recombinant protein (human, UniProt P26951 19-305) (assay: flow cytometry of T cells electroporated with CAR mRNA, stained with CD123-Fc + PE-anti-hIgG-Fc; Mock 1.68).
T2 construct: construct not described; not shown: Fc part
T2 sequence (looked up): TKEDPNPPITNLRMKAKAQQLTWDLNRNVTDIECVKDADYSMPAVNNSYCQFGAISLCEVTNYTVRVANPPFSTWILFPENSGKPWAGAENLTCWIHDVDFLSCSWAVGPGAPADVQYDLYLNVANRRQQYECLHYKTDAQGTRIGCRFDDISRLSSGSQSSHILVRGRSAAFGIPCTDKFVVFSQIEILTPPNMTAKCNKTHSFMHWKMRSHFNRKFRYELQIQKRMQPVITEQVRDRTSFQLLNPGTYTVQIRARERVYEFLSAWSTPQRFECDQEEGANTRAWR
Experimental: The CD123 CAR mRNAs obtained in Example 35 above were each introduced into T cells by electroporation according to the following procedures: T cells were collected, washed with the Opti-MEM medium, and resuspended at 1×10e⁷/mL with the Opti-MEM medium; 10 μg of RNA and 100 μL of T cells were aliquoted, mixed well, and electroporated under the following parameters (BTX machine): 500 V, 0.7 ms; the cells were then transferred to a pre-warmed medium and cultured at 37° C. The binding of CD123 CART cells to the CD123-Fc recombinant protein was detected by FACS staining. […] Empty vector (Mock) was a control T cell without CAR molecule. A549 tumor cells were electroporated with different amounts of CD123 mRNA. The electroporation procedure was the same as described above, and only the parameters were changed, with the parameters 300 V, 0.5 ms used. CD123 expression in A549 tumor cells was detected by FACS staining of isotype or anti-CD123 antibodies and A549 cells electroporated with different amounts of CD123 mRNA. […] The cytotoxicity of CD123 CART cells against tumor cells was detected in an in vitro cytotoxicity assay. Tumor cells expressing EGFP or EGFP-A549 cells electroporated with different amounts of tumor antigen were seeded at 3000 cells/100 μL/well into a flat-bottom 96-well plate; CART cells were diluted to a proper concentration and seeded to the 100 μL/well tumor cells according to different E/T ratios (e.g., 10:1, 3:1, or 1:1), and the co-culture plate was placed into the IncuCyte S3 machine and scanning parameters were set. After scanning for 3 days, the total green object integrated intensity (GCU×μm²/well) was analyzed to calculate the killing efficiency.

Compared with B2, B3 is higher in “percent of cells in the CD123-Fc positive gate” value (from here on “percent of cells”): 53.6% for the first, 81.7% for the second.

Compared with B4, B5 is higher in “percent of cells” value: 84.7% for the first, 93.8% for the second.

First: B6
Second: B7
The “percent of cells” value of the first is lower: 79.3% for the first, 93.3% for the second.

First: B8
Second: B9
The “percent of cells” value of the first is higher: 94% for the first, 32.3% for the second.

Compared with B10, B11 is higher in “percent of cells” value: 38% for the first, 85.7% for the second.

Compared with B12, B13 is higher in “percent of cells” value: 85.4% for the first, 97.3% for the second.

Compared with B14, B15 is higher in “percent of cells” value: 94.2% for the first, 97.5% for the second.

With B16 the “percent of cells” value was 87.8%.
